Here are results for two molecules from patent US20250339531A1 (FRED HUTCHINSON CANCER CENTER, published 2025).

Experiment [1] addresses T1, Proteasome subunit alpha type (Homo sapiens).
T1 construct: also called PSMA6
As to the kind of experiment: anti-FLAG co-IP LC-MS, exp 4, +Dox +IFNG.

Experiment [2] deals with T2, Immunoglobulin kappa variable 2-40 (Homo sapiens).
T2 construct: also called IGKV2-40
As to the kind of experiment: anti-FLAG co-IP LC-MS, exp 4, +Dox +IFNG.

In experiment [3] the target is T3, Signal transducer and activator of transcription 1-alpha/beta (Homo sapiens, UniProt P42224 2-750).
T3 construct: also called STAT1
T3 sequence (looked up): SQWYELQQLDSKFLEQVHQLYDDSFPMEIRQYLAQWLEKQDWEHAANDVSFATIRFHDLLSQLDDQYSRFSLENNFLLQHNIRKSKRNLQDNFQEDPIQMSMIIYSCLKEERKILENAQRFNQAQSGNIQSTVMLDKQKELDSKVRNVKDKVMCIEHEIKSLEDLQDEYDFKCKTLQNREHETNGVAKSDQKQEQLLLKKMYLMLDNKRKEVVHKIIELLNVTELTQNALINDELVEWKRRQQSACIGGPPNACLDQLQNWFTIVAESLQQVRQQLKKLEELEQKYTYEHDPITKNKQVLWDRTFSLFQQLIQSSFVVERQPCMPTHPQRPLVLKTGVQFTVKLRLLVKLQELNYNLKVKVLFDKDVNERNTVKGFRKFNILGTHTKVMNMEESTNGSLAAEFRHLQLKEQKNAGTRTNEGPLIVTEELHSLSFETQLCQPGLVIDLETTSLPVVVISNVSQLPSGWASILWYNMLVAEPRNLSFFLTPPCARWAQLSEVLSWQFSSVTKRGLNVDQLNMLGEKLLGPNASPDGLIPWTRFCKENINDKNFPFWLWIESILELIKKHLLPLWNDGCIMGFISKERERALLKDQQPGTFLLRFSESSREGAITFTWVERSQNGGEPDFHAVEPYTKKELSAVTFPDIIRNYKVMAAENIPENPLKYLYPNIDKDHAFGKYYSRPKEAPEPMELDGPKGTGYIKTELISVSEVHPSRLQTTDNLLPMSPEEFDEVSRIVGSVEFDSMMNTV
As to the kind of experiment: anti-FLAG co-IP LC-MS, exp 4, +Dox +IFNG.

Experiment [4] has as its target T4, Uncharacterized protein (Fragment) (Homo sapiens).
T4 construct: also called NA (Homology to TAP2)
Briefly: anti-FLAG co-IP LC-MS, exp 4, +Dox +IFNG.

The target of experiment [5] is T3, Signal transducer and activator of …. Briefly: anti-FLAG co-IP and western of truncation series in MB135 cells (FIG. 27A).

T2 sequence (A0A087WW87 20-121): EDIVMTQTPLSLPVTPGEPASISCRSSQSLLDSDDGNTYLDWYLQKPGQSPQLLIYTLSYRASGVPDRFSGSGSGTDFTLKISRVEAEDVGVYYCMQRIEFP

B1: i3XFLAG-NLS-CTDaa154-419mL1dL2 (other)
chain: MDYKDHDGDYKDHDIDYKDDDDKPPKRMRREPKKKRKVGRAPAQAGGLCSAAPGGGHPAPSWVAFAHTGAWGTGLPAPHVPCAPGALPQGAFVSQAARAAPALQPSQAAPAEGISQPAPARGDFAYAAPAPPDGALSHPQAPRWPPHPGKSREDRDPQRDGLPGPCAVAQPGPAQAGPQGQGVLAPPTSQGSPWWGWGRGPQVAGAAWEPQAGAAPPPQPAPPDASASARQGQMQGIPAPSQALQEPAPWSALPCGLLAAEAAASPEFLQQAQPLLETEAPGELEASEEAASLEAPLSEEEYRA
notes: also called longCTDmL1dL2; longCTDmL1DL2
B1: the PSMs in experiment [1] came out at 4 PSMs; in experiment [2] it was 1 PSMs; in experiment [3], 18 PSMs; in experiment [4], 2 PSMs.

B2: iDUX4aa154-271 (other)
chain: GRAPAQAGGLCSAAPGGGHPAPSWVAFAHTGAWGTGLPAPHVPCAPGALPQGAFVSQAARAAPALQPSQAAPAEGISQPAPARGDFAYAAPAPPDGALSHPQAPRWPPHPGKSREDRD
notes: not shown: N-terminal 3×FLAG tag and NLS
As for B2, the binding result in experiment [5] is on record as “no binding”.
